The subject of the data set is Escherichia coli TOP10. In words: shrunken log2 fold change of peptide-encoding DNA abundance (4.5 h post-induction vs induction); higher = less antimicrobial activity (less host growth inhibition). The settings on record: time post-induction: 4.5 h; library: site-saturation at positions 5, 18, 19, 20.
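Also: peptides expressed intracellularly from a pBAD plasmid library in pooled LB shake-flask culture, induced with 0.3% L-arabinose, DNA abundance read by NGS, three biological replicates, DESeq2 with apeglm shrinkage.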

Turning to RRIRTRPPRLPRPRPRPASHPRP, the “shrunken log2 fold change” value was -0.42.
For the sequence RRIRDRPPRLPRPRPRPYNSPRP, the “shrunken log2 fold change” value was -0.237.
With RRIRARPPRLPRPRPRPCPMPRP the figure was -0.0338.
Turning to RRIRERPPRLPRPRPRPWFPPRP, the “shrunken log2 fold change” value is -0.206.
On to RRIRQRPPRLPRPRPRPYSCPRP, for which the “shrunken log2 fold change” value is 0.0133.
Take RRIRSRPPRLPRPRPRPQYEPRP: the “shrunken log2 fold change” value is -0.355.
With RRIRFRPPRLPRPRPRPNEVPRP the figure was -0.0205; with RRIRARPPRLPRPRPRPFWLPRP, 0.0704; with RRIRRRPPRLPRPRPRPFAMPRP, 0.0854.
In the case of RRIRDRPPRLPRPRPRPCDQPRP, the “shrunken log2 fold change” value was determined as 0.0112.
For the sequence RRIRYRPPRLPRPRPRPKPVPRP, the “shrunken log2 fold change” value was 0.218.
With RRIRFRPPRLPRPRPRPDISPRP the figure was -0.216; with RRIRHRPPRLPRPRPRPDHLPRP, -0.0237; with RRIRVRPPRLPRPRPRPPIYPRP, -0.16.
The value for RRIRWRPPRLPRPRPRPRFTPRP was 0.307.
Take RRIRERPPRLPRPRPRPFKIPRP: the “shrunken log2 fold change” value is -0.0307.
As for RRIRMRPPRLPRPRPRPTMEPRP, the “shrunken log2 fold change” value was 0.868.
Consider RRIRYRPPRLPRPRPRPRKTPRP, for which the “shrunken log2 fold change” value was -0.00513.
With RRIRHRPPRLPRPRPRPSPSPRP the figure was 0.00467.
With RRIRLRPPRLPRPRPRPWLKPRP, the “shrunken log2 fold change” value was found to be 0.0827.
RRIRARPPRLPRPRPRPPGEPRP: the “shrunken log2 fold change” value is 0.381.
Take RRIRYRPPRLPRPRPRPMYWPRP: the “shrunken log2 fold change” value was -0.451.
With RRIRYRPPRLPRPRPRPPDWPRP the figure was 0.299; with RRIRCRPPRLPRPRPRPACYPRP, 0.0371.
With RRIRGRPPRLPRPRPRPRNKPRP the figure was 0.765; with RRIRLRPPRLPRPRPRPMTHPRP, -0.22; with RRIRHRPPRLPRPRPRPWCTPRP, -0.11.
The value for RRIRRRPPRLPRPRPRPSSGPRP was 0.0144; that for RRIRIRPPRLPRPRPRPAVFPRP was 0.103; that for RRIRHRPPRLPRPRPRPDVIPRP was 0.0849.
Take RRIRARPPRLPRPRPRPKSCPRP: the “shrunken log2 fold change” value came out at 0.129.
The value for RRIRYRPPRLPRPRPRPRIRPRP was 0.0291; that for RRIRHRPPRLPRPRPRPVYMPRP was -0.2.
Turning to RRIRWRPPRLPRPRPRPRDQPRP, the “shrunken log2 fold change” value was -0.033.
With RRIRCRPPRLPRPRPRPFPAPRP the figure was -0.0653.
The value for RRIRQRPPRLPRPRPRPVCYPRP was -0.636.
Take RRIRFRPPRLPRPRPRPIHLPRP: the “shrunken log2 fold change” value was -0.154.
On to RRIRLRPPRLPRPRPRPLMTPRP, for which the “shrunken log2 fold change” value was -0.344.
Take RRIRSRPPRLPRPRPRPDPAPRP: the “shrunken log2 fold change” value was 0.45.
The value for RRIRGRPPRLPRPRPRPALIPRP was 0.737; that for RRIRGRPPRLPRPRPRPQLKPRP was 0.404; that for RRIRRRPPRLPRPRPRPRLHPRP was 0.435.
With RRIRWRPPRLPRPRPRPSWDPRP, the “shrunken log2 fold change” value was determined as 0.251.
The value for RRIRQRPPRLPRPRPRPEKVPRP was -0.155.
With RRIRTRPPRLPRPRPRPRMLPRP the figure was 0.292; with RRIRCRPPRLPRPRPRPMMRPRP, 0.0843.
The value for RRIRTRPPRLPRPRPRPLPFPRP was -0.518.
On to RRIRFRPPRLPRPRPRPDTVPRP, for which the “shrunken log2 fold change” value was -0.0794.
For RRIRSRPPRLPRPRPRPTLQPRP, the “shrunken log2 fold change” value turned out to be 0.128.
With RRIRYRPPRLPRPRPRPVAWPRP the figure was 0.00214; with RRIRWRPPRLPRPRPRPEHMPRP, -0.122.
With RRIRYRPPRLPRPRPRPSLLPRP the figure was -0.727; with RRIRERPPRLPRPRPRPDLRPRP, -0.076; with RRIRQRPPRLPRPRPRPNEMPRP, 0.105.
With RRIRHRPPRLPRPRPRPGCQPRP the figure was 0.0291; with RRIRQRPPRLPRPRPRPYRWPRP, -0.0412; with RRIRHRPPRLPRPRPRPAAWPRP, 0.465.
Turning to RRIRRRPPRLPRPRPRPTSFPRP, the “shrunken log2 fold change” value worked out at 0.264.
The value for RRIRARPPRLPRPRPRPHLIPRP was -0.0757.
Regarding RRIRRRPPRLPRPRPRPCYFPRP, the “shrunken log2 fold change” value is -0.0239.
On to RRIRFRPPRLPRPRPRPLWWPRP, for which the “shrunken log2 fold change” value came to 0.172.
With RRIRARPPRLPRPRPRPNWVPRP the figure was -0.361.
The value for RRIRHRPPRLPRPRPRPPNHPRP was -0.442; that for RRIRARPPRLPRPRPRPCGFPRP was 0.111.
With RRIRNRPPRLPRPRPRPEVKPRP the figure was -0.031; with RRIRYRPPRLPRPRPRPGKHPRP, 0.0354.
On to RRIRDRPPRLPRPRPRPHDIPRP, for which the “shrunken log2 fold change” value came out at 0.0555.
Take RRIRVRPPRLPRPRPRPEYHPRP: the “shrunken log2 fold change” value is -0.287.
With RRIRLRPPRLPRPRPRPRKRPRP the figure was 0.314; with RRIRPRPPRLPRPRPRPDWLPRP, 0.288.
With RRIRQRPPRLPRPRPRPLAEPRP the figure was -0.0181.
Regarding RRIRPRPPRLPRPRPRPKCQPRP, the “shrunken log2 fold change” value came to 0.0931.
For RRIRARPPRLPRPRPRPWNHPRP, the “shrunken log2 fold change” value was -0.128.
RRIRVRPPRLPRPRPRPQRPPRP: the “shrunken log2 fold change” value was 0.306.
With RRIRGRPPRLPRPRPRPTYHPRP the figure was 0.0704; with RRIRQRPPRLPRPRPRPDGEPRP, 0.117.
With RRIRLRPPRLPRPRPRPAFIPRP, the “shrunken log2 fold change” value is -0.116.
In the case of RRIRWRPPRLPRPRPRPVHSPRP, the “shrunken log2 fold change” value was -0.37.
With RRIRMRPPRLPRPRPRPPSVPRP the figure was 0.777.
With RRIRNRPPRLPRPRPRPTHDPRP the figure was -0.219; with RRIRQRPPRLPRPRPRPTDMPRP, -0.0372; with RRIRMRPPRLPRPRPRPCLFPRP, -0.155.
The value for RRIRVRPPRLPRPRPRPVDQPRP was -0.0903.
On to RRIRNRPPRLPRPRPRPRPLPRP, for which the “shrunken log2 fold change” value amounted to 0.402.
The value for RRIRPRPPRLPRPRPRPQNWPRP was 0.0202.
Turning to RRIRQRPPRLPRPRPRPWRGPRP, the “shrunken log2 fold change” value was -0.0544.
With RRIRKRPPRLPRPRPRPQREPRP the figure was 0.749; with RRIRSRPPRLPRPRPRPYRHPRP, -0.542.
With RRIRNRPPRLPRPRPRPPWLPRP the figure was 0.482; with RRIRTRPPRLPRPRPRPGPVPRP, 0.141; with RRIRYRPPRLPRPRPRPCGSPRP, 0.00387.

Source of the values: the supplement of paper PMC9112550, “Optimization of the antimicrobial peptide Bac7 by deep mutational scanning” (BMC Biology, 2022).
